Measured values reported in paper PMC4690471 (Cell, 2015).

B1: full-length zebrafish RAG2 (natural protein, UniProt O13034 1-530, looked up)
chain: MSLQPLTAVNCGSLVQPGFSLLDLEGDVYLFGQKGWPKRSCPTGIFGVRIKKGELKLRAISFSNNSSYLPPLRCPAIAHFEAQDGKPECYLIHGGRTPNNELSSSLYMLSVDSRGCNRKVTLRCEEKELVGDVPSARYGHTLSVINSRGKTACVLFGGRSYMPPTERTTQNWNSVGDCPPQVYLIDLEFGCCTAHTLPELTDGQSFHVALARQDCVYFLGGHILSSDCRPSRLIRLHVELLLGSPVLTCTILHEGLTITSAIASPIGYHEYIIFGGYQSETQKRMECTYVGLDDVGVHMESREPPQWTSEISHSRTWFGGSLGKGTALVAIPSEGNPTPPEAYHFYQVSFQKEQDGEATAQGCSQESTDFEDSAPLEDSEELYFGREPHELEYSSDVEGDTYNEEDEEDESQTGYWIKCCLSCQVDPNIWEPYYSTELTRPAMIFCSRGEGGHWVHAQCMELPESLLLQLSQDNSKYFCLDHGGLPKQEMTPPKQMLPVKRVPMKMTHRKAPVSLKMTPAKKTFLRRLFD
B2: zebrafish RAG1 (271–1031) (domain or fragment, UniProt O13033 271-1031, looked up)
chain: RCQRDHLSTKLIPTEVPADLIRAVTCQVCDHLLSDPVQSPCRHLFCRLCIIRYTHALGPNCPTCNQHLNPSHLIKPAKFFLATLSSLPLLCPSEECSDWVRLDSFREHCLNHYREKESQEEQTPSEQNLDGYLPVNKGGRPRQHLLSLTRRAQKHRLRDLKNQVKTFAEKEEGGDVKSVCLTLFLLALRAGNEHKQADELEAMMQGRGFGLHPAVCLAIRVNTFLSCSQYHKMYRTVKATSGRQIFQPLHTLRNAEKELLPGFHQFEWQPALKNVSTSWDVGIIDGLSGWTVSVDDVPADTISRRFRYDVALVSALKDLEEDIMEGLRERALDDSMCTSGFTVVVKESCDGMGDVSEKHGSGPAVPEKAVRFSFTIMSISIRLEGEDDGITIFQEQKPNSELSCRPLCLMFVDESDHETLTAILGPVVAERKAMMESRLIISVGGLLRSFRFFFRGTGYDEKMVREMEGLEASGSTYICTLCDSTRAEASQNMVLHSITRSHDENLERYEIWRKNPFSESADELRDRVKGVSAKPFMETQPTLDALHCDIGNATEFYKIFQDEIGEVYQKPNPSREERRRWRSTLDKQLRKKMKLKPVMRMNGNYARRLMTREAVEAVCELVPSEERREALLKLMDLYLQMKPVWRSTCPSRDCPDQLCQYSYNSQQFADLLSSMFKYRYDGKITNYLHKTLAHVPEIVERDGSIGAWASEGNESGNKLFRRFRKMNARQSKTFELEDILKHHWLYTSKYLQKFMEAHKNS

Columns and labels:
[1] = target: B2; experiment: cryo-EM structure
cryo-EM structure = target: the molecule itself; experiment: cryo-EM structure

binding result [1] | Binder | stoichiometry N (cryo-EM structure)
binds | B1 | 
 | B2 | 2
